Data on one substance can be found in article PMC10140330.

The target of the assay is SmT1-R, resistin-trimerized SARS-CoV-2 reference strain spike ectodomain (SARS-CoV-2 | human) (UniProt P0DTC2). Put plainly: SPR; Biacore T200, 25°C, PBS with 0.05% Tween 20 and 3.4 mM EDTA; spike trimer captured through its resistin domain on an immobilised anti-resistin VHH-Fc; monomeric ACE2 flowed over, single cycle kinetics, three concentrations, 5-fold dilutions from 200 nM; 1:1 binding model. For orientation: In SPR one partner is held on a chip, and binding of the other changes the refractive index at the surface.

pKd: −log10 of the molar value.

As for “recombinant human ACE2, purified monomeric (from UniProt Q9BYF1 18-805) (receptor)”, the pKd (as a rule, the Kd on a negative log10 scale, so that one unit is a factor of ten) is 7.55.
